Test results: US20240270828A1 (UAB RESEARCH FOUNDATION, published 2024)

Experiments:
[1] = biological target: T1, SARS-CoV-2 S1+S2 (40589-V08B1, Sino Biological) (SARS-CoV-2, UniProt P0DTC2 16-1213); assay: ELISA on coated protein, anti-human IgG-HRP; AUC of the OD
[2] = biological target: T2, SARS-CoV-2 S1 (40591-V08H3, Sino Biological) (SARS-CoV-2, UniProt P0DTC2 16-685); assay: as above
T2 construct: domain: S1

[3] = biological target: T3, SARS-CoV-2 S2 (40590-V08B, Sino Biological) (SARS-CoV-2, UniProt P0DTC2 686-1213); assay: as above
T3 construct: domain: S2

[4] = biological target: T4, Spike of MERS-CoV on infected Vero E6 cells and live virus (MERS-CoV, UniProt K9N5Q8 18-1353); assay: immunofluorescence on infected Vero E6 cells, 1 µg/ml
T4 sequence: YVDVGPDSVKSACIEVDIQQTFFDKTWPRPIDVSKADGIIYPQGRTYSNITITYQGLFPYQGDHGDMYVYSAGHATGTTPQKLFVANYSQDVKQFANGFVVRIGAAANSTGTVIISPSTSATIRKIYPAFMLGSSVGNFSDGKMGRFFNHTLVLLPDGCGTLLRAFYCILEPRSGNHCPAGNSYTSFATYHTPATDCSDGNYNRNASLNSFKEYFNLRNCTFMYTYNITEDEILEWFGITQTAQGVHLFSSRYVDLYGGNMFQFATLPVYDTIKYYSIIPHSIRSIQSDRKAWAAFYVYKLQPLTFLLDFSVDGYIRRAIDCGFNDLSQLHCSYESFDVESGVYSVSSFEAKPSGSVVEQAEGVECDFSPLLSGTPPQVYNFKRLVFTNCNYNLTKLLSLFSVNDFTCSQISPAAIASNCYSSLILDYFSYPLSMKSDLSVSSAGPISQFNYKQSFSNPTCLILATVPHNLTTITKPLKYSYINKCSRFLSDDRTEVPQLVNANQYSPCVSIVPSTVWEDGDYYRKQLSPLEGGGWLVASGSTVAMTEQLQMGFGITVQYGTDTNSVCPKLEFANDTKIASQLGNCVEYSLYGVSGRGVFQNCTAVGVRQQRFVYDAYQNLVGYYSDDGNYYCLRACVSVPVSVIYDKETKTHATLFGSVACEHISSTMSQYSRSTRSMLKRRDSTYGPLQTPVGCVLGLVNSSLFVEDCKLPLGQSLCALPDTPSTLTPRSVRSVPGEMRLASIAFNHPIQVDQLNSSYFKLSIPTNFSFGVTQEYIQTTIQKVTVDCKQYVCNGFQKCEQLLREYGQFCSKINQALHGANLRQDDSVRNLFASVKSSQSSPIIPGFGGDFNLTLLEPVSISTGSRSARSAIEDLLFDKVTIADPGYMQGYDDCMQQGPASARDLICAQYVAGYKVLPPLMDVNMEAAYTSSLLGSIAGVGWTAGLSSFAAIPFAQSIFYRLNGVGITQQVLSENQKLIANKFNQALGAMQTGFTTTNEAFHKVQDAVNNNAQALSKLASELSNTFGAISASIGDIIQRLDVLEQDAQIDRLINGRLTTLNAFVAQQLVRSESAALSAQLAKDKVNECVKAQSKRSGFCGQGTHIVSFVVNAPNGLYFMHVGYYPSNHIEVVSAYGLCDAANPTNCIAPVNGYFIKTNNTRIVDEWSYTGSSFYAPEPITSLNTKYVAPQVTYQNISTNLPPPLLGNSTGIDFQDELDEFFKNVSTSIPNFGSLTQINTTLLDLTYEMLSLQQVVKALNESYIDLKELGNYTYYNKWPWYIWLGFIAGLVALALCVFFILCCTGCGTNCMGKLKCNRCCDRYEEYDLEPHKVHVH

[5] = biological target: Spike of SARS-CoV (Urbani) on infected Vero E6 cells and live virus (SARS-CoV, UniProt P59594 14-1255); assay: as above
[6] = biological target: Spike of live SARS-CoV-2 WT virus (SARS-CoV-2, UniProt P0DTC2 14-1273); assay: cell-based or functional assay
[7] = biological target: T1, SARS-CoV-2 S1+S2 (40589-V08B1, Sino …); assay: ELISA, hmAb at 10 and 1 ug/ml in duplicate; AUC
[8] = biological target: T2, SARS-CoV-2 S1 (40591-V08H3, Sino …); assay: ELISA, hmAb at 10 and 1 ug/ml in duplicate; AUC
[9] = biological target: T3, SARS-CoV-2 S2 (40590-V08B, Sino …); assay: ELISA, hmAb at 10 and 1 ug/ml in duplicate; AUC
[10] = biological target: Spike of live SARS-CoV-2 WT virus (SARS-CoV-2, UniProt P0DTC2 14-1273); assay: cell-based or functional assay; remark: listed apart in the source
[11] = biological target: T5, MERS-CoV S2 (Sino Biological, 40070-V08) (MERS-CoV, UniProt K9N5Q8 726-1296); assay: SPR, as far as told; target printed as MERS-CoV SH
T5 sequence: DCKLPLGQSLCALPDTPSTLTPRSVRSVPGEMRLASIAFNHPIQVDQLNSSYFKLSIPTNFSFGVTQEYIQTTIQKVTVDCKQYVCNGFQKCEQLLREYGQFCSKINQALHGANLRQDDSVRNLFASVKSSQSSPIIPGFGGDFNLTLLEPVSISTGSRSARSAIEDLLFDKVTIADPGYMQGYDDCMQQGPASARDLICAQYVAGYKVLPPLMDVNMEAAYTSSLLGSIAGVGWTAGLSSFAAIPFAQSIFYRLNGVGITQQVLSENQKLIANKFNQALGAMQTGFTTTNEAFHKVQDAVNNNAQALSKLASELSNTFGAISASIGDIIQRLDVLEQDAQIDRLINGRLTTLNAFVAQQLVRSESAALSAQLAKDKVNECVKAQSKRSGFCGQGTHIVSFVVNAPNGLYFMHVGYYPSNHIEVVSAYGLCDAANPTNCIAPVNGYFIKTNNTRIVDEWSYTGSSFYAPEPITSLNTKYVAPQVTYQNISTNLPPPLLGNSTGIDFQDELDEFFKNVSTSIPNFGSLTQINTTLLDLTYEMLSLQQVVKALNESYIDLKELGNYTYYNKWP

[12] = biological target: T5, MERS-CoV S2 (Sino Biological, 40070-V08); assay: ELISA, mAb at 5, 0.5 and 0.05 ug/ml, without and with 8M urea; AUC heat map
[13] = biological target: T6, OC43 S2 (40607-V08B1, Sino Biological) (HCoV-OC43, UniProt P36334 759-1297); assay: as above
T6 construct: domain: S2
T6 sequence: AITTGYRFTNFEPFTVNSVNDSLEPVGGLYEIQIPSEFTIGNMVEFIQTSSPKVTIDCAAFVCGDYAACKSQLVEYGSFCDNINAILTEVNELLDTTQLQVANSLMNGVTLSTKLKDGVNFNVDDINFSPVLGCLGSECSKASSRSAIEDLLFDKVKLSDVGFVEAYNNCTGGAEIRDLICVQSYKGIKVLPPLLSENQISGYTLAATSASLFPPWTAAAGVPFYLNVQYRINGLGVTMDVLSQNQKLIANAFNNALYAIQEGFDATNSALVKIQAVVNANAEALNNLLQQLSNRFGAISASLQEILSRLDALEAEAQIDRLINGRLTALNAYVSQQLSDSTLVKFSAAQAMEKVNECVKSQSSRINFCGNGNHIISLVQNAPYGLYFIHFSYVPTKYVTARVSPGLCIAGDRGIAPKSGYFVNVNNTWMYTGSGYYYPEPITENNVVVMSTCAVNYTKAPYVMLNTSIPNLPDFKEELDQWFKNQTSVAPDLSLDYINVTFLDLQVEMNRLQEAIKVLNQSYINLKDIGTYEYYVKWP

[14] = biological target: T7, HKU1 S2 (40021-V08B, Sino Biological) (HCoV-HKU1, UniProt Q5MQD0 761-1300); assay: as above
T7 construct: domain: S2
T7 sequence: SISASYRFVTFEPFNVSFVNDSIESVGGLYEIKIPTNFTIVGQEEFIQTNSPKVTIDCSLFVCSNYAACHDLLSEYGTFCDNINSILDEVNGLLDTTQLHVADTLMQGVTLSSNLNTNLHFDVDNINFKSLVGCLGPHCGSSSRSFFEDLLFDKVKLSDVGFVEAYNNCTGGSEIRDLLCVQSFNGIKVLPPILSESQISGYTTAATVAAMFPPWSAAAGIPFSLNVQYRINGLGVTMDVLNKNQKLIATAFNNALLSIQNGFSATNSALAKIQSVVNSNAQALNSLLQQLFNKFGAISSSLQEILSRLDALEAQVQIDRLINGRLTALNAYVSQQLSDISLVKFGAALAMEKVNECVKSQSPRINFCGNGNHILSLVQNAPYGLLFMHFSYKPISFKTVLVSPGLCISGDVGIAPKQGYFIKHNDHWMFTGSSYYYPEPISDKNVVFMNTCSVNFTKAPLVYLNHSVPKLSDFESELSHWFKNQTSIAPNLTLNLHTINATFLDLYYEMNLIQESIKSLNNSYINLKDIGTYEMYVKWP

[15] = biological target: SARS-CoV-2 Wuhan-Hu-1 Spike protein (NR-53524 BEI Resources) (SARS-CoV-2, UniProt P0DTC2 16-1213); assay: cell-based or functional assay

B1: 1242C6 (antibody, V domains shown)
VH: EVQLVQSGAEVKKPGASVKVSCKASGFTFSDYYMHWVRQAPRQGLEWMGLINPSGSGTAYAQNFQGRVTLTRDTSTSTLYMEMGSLTSDDTAVYYCARMDSSGSYDHWGQGTLVTVSS
VL: DIVMTQSPGTLSLSPGDRATLSCRASQTIRISYLAWYQQKPGQAPRLLVYGPSIRATGIPDRFSASGSGTDFTLTISRLEPEDFAVYYCQHYGSSPPRYTFGQGTKLEIK
notes: Recombinant human IgG1
- Binding AUC [1]: 25.6
- Binding AUC [2]: 0.8
- Binding AUC [3]: 26.7
- binding result [4]: binds
- binding result [5]: binds
- Neutralization IC50 (µg/ml), Live Virus WT [6]: 5.68 µg/mL
- Binding AUC [7]: 25.6
- Binding AUC [8]: 0.8
- binding result [8]: no binding (tested: 10 ug/ml)
- Binding AUC [9]: 26.7

B2: CV3-25 (antibody, V domains shown)
VH: QVQLVESGAEVKKPGESLKISCKGSGYTFTRYWIGWVRQMPGKGLEWMGIIYPGDSDTRYSPSFQGHVTISADKSISTAYLQWNSLKASDTAMYYCARLPQYCSNGVCQRWFDPWGQGTLVTVSS
VL: EIVLTQSPSSVSASVGDRVTITCRASQGISSWLAWYQQKPGKAPKLLIYAASSLQSGVPSRFSGSGSGTDFTLTISSLQPEDFATYYCQQGNSFPYTFGQGTNLEIK
- Neutralization IC50 (µg/ml), Live Virus WT [10]: 12.3 µg/mL

B3: S2P6 (antibody, V domains shown)
VH: EVQLVQSGAEVKKPGASVKVSCKASGYTFTSQYMHWVRQAPGQGLEWIGIINPSGVHTSYAQKFQGRVTLTRDTSTSTLYMELSSLRSEDTAVYYCARGSPKGAFDYWGQGTLVTVSS
VL: not shown
- Kd [11]: 8.5 nM

B4: 1213H7 (antibody, V domains shown)
VH: QVQLQQSGPEVKKPGTSVKVSCRASGFTFSSSAMQWVRQARGQRLEWIGWIVVGSGNANYAQKFQERVTITRDLSTRTAYMELSSLRSEDTAVYYCAAPYCSGGTCLDGFDIWGQGTMVTVSS
VL: EIVLTQSPGTLSLSPGERATLSCRASQSVSRNYLGWYQQKPGQAPRLLIYGASSRATGIPDRFSGSGSGTDFTLTISRLEPEDFAVYYCQQYGSSPWTFGQGTKVEIK
- binding result [12]: no binding (tested: 5 ug/ml)
- binding result [13]: no binding (tested: 5 ug/ml)
- binding result [14]: no binding (tested: 5 ug/ml)
- ADCP activity, fold over isotype control [15]: ~8 fold
